# Laboratory results from patent US20220073646A1 (Hoffmann-La Roche, published 2022).
# T1: cynomolgus 4-1BB on activated cynomolgus PBMC (cynomolgus, UniProt Q07011 24-255 (human entry))
# T1 chain: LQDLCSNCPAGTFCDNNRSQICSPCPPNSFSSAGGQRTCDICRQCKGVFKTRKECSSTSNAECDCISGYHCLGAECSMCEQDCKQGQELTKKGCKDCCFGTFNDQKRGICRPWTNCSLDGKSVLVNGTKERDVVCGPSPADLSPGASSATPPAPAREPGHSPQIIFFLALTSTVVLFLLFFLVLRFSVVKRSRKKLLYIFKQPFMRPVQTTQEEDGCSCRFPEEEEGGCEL
# T2: recombinant murine 4-1BB AcTEV (murine, UniProt P20334 24-187)
# T2 construct: murine 4-1BB Fc(kih) cleaved with AcTEV protease, Fc removed
# T2 sequence: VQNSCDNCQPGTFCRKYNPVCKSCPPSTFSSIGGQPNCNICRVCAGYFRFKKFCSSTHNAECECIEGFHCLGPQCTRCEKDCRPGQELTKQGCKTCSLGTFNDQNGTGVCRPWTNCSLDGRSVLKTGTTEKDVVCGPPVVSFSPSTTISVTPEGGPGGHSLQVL
# T3: human OX40 on cells (human, UniProt P43489 29-277)
# T3 sequence: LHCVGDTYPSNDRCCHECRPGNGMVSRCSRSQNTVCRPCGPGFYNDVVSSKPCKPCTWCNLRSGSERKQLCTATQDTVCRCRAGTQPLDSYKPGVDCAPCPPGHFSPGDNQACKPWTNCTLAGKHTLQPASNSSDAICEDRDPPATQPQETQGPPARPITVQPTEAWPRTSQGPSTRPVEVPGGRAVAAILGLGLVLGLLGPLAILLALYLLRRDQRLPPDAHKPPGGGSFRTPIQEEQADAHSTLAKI
# T4: cynomolgus OX40 on activated cynomolgus PBMC (cynomolgus, UniProt P43489 29-214 (human entry))
# T4 construct: whole, on cells
# T4 chain: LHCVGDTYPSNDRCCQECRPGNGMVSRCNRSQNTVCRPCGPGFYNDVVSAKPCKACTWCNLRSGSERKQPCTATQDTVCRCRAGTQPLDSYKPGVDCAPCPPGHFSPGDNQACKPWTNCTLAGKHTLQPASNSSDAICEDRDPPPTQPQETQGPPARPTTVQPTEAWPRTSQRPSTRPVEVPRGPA
# T5: recombinant human OX40 His (human)
# T5 construct: ectodomain with avi and hexahistidine tag; also called human Ox40 avi His
# T5 chain: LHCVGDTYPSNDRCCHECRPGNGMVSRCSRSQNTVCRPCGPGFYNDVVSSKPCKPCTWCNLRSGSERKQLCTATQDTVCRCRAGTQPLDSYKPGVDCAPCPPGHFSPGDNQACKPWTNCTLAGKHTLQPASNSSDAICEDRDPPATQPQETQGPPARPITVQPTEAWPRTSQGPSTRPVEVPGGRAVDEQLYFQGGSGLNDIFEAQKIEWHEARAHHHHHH
# B1: 12B3 P329GLALA IgG1 (antibody, V domains shown)
# VH: QVQLVQSGAEVKKPGSSVKVSCKASGGTFSSYAISWVRQAPGQGLEWMGGIIPIFGTANYAQKFQGRVTITADKSTSTAYMELSSLRSEDTAVYYCARSEFRFYADFDYWGQGTTVTVSS
# VL: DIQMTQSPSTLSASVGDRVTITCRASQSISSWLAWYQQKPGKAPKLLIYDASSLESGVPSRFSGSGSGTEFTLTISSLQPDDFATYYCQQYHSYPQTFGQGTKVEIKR
# notes: anti-4-1BB; also called 12B3 IgG; 12B3 huIgG1 P329G LALA
# B2: 20G2 P329GLALA IgG1 (antibody, V domains shown)
# VH: QVQLVQSGAEVKKPGSSVKVSCKASGGTFSSYAISWVRQAPGQGLEWMGGIIPIFGTANYAQKFQGRVTITADKSTSTAYMELSSLRSEDTAVYYCARSYYWESYPFDYWGQGTTVTVSS
# VL: DIQMTQSPSTLSASVGDRVTITCRASQSISSWLAWYQQKPGKAPKLLIYDASSLESGVPSRFSGSGSGTEFTLTISSLQPDDFATYYCQQQHSYYTFGQGTKVEIKR
# notes: also called anti-mouse 4-1BB clone 20G2 huIgG1 P329G LALA
# B3: 1G4 P329GLALA IgG1 (antibody, V domains shown)
# VH: QVQLVQSGAEVKKPGSSVKVSCKASGGTFSSYAISWVRQAPGQGLEWMGGIIPIFGTANYAQKFQGRVTITADKSTSTAYMELSSLRSEDTAVYYCAREYGSMDYWGQGTTVTVSS
# VL: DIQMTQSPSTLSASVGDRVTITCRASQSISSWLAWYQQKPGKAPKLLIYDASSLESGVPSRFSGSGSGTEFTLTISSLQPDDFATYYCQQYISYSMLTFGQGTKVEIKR
# notes: anti-OX40
# B4: clone 8A06 purified Fab (Fab, V domains shown)
# VH: QVQLVQSGAEVKKPGSSVKVSCKASGGTFSSYAISWVRQAPGQGLEWMGGIIPIFGTANYAQKFQGRVTITADKSTSTAYMELSSLRSEDTAVYYCARGYYAIDYWGQGTTVTVSS
# VL: SSELTQDPAVSVALGQTVRITCQGDSLRSYYASWYQQKPGQAPVLVIYGKNNRPSGIPDRFSGSSSGNTASLTITGAQAEDEADYYCNSPQTSGSAVFGGGTKLTVL
# notes: bacterially expressed Fab of the lambda-DP88 library with CH1/CL and tags; also called 8A06 (Fab-format)
# Experiments:
# [1] = target: T6, hu4-1BB-SNAP fusion protein on Hek293 EBNA cells (human, UniProt Q07011 24-255, labeled with the FRET donor Terbium); assay: cell FRET competition against d2-labeled anti-4-1BB tracer, 4 h
# T6 construct: not shown: SNAP tag
# [2] = target: T7, human fibroblast activation protein (huFAP) on cells (human, UniProt Q12884 1-760); assay: flow cytometry, WM-266-4 and NIH/3T3-huFAP clone 19
# T7 construct: also called NIH/3T3-huFAP clone 39; NIH/3T3-huFAP clone 19
# [3] = target: T8, mouse 4-1BB on activated mouse splenocytes (mouse, UniProt P20334 24-256); assay: flow cytometry, activated mouse T cells
# Procedure: (§1) Cells were incubated for 30 min at 4° C., washed twice with 200 μL/well FACS-buffer and resuspended for fixation with 50 μL/well DPBS containing 1% (v/v) formaldehyde. The next day cells were resuspended in 200 μL/well FACS buffer and acquired using the 2-laser Cantoll (BD Bioscience with DIVA software) or 5-laser Fortessa (BD Bioscience with DIVA software). Gates were set on CD8⁺ and CD4⁺ T cells and the median fluorescence intensity (MFI) of the secondary detection antibody was used to analyze binding of primary antibodies. Using Graph Pad Prism (Graph Pad Software Inc.) data was baselined by subtracting the blank values (no primary antibody added) and the EC₅₀ values were calculated using non-linear regression curve fit (robust fit).
# [4] = target: T1, cynomolgus 4-1BB on activated …; assay: flow cytometry, activated cynomolgus CD4 T cells
# Procedure: (§2) Cells were washed twice with FACS buffer and resuspended in 100 μL/well FACS buffer supplied with 0.2 μg/mL DAPI to discriminated dead from living cells. Cells were immediately acquired using a 5-laser Fortessa (BD Bioscience with DIVA software). Gates were set on CD8⁺ and CD4⁺ T cells and the median fluorescence intensity (MFI) of the secondary detection antibody was used to analyze binding of primary antibodies. Using Graph Pad Prism (Graph Pad Software Inc.) data was baselined by subtracting the blank values (no primary antibody added) and the EC₅₀ values were calculated using non-linear regression curve fit (robust fit).
# [5] = target: T9, human 4-1BB on cells (human, UniProt Q07011 24-255); assay: flow cytometry, activated human CD8+ T cells
# T9 construct: also called HeLa-hu4-1BB-NF-kB-luc clone 26
# Procedure: (§3) Plates were centrifuged 4 minutes with 400×g at 4° C. and supernatant was discarded. […] Afterwards cells were washed once with 200 μL/well cold FACS buffer (DPBS supplied with 2% (v/v) FBS, 5 mM EDTA pH8 (Amresco, Cat. No. E177) and 7.5 mM sodium azide (Sigma-Aldrich S2002)). […] Cells were washed four times with 200 μL/well 4° C.
# Cells were washed twice with 200 μL FACS buffer/well and fixated by resuspending in 50 μL/well DPBS containing 1% Formaldehyde (Sigma, HT501320-9.5L). Cells were acquired the same or next day using 3-laser MACSQuant Analyzer 10 (Miltenyi Biotech). Gates were set on CD8⁺ and CD4⁺ T cells and the geo mean of fluorescence intensity (MFI) of the secondary detection antibody was used to analyze binding of primary antibodies. Using Graph Pad Prism (Graph Pad Software Inc.) data was baselined by subtracting the blank values (no primary antibody added) and the EC₅₀ values were calculated using non-linear regression curve fit (robust fit).
# [6] = target: T9, human 4-1BB on cells; assay: flow cytometry, activated human CD8 T cells
# Procedure: as §3
# Cells were washed twice with 200 μL FACS buffer/well and fixated by resuspending in 50 μL/well DPBS containing 1% Formaldehyde (Sigma, HT501320-9.5L). Cells were acquired the same or next day using a 3-laser Canto II (BD Bioscience with DIVA software) or a 5-laser Fortessa (BD Bioscience with DIVA software) or 3-laser MACSQuant Analyzer 10 (Miltenyi Biotech). Gates were set on CD8⁺ and CD4⁺ T cells and the median fluorescence intensity (MFI) or geo mean of fluorescence intensity of the secondary detection antibody was used to analyze binding of primary antibodies. Using Graph Pad Prism (Graph Pad Software Inc.) data was baselined by subtracting the blank values (no primary antibody added) and the EC50 values were calculated using non-linear regression curve fit (robust fit).
# [7] = target: T10, recombinant human 4-1BB Fc(kih) (human, UniProt P0DOX5 223-449 = IgG part, biotin on C-terminal Avi tag where used biotinylated); assay: SPR, captured IgG, 4-1BB Fc(kih) analyte
# T10 construct: also called hu4-1BB; biotinylated human 4-1BB
# Procedure: (§4) All SPR experiments were performed on a Biacore T200 at 25° C. with HBS-EP as running buffer (0.01 M HEPES pH 7.4, 0.15 M NaCl, 3 mM EDTA, 0.005% Surfactant P20, Biacore, Freiburg/Germany).
# Anti-human Fab antibody (Biacore, Freiburg/Germany) was directly coupled on a CM5 chip at pH 5.0 using the standard amine coupling kit (Biacore, Freiburg/Germany). The immobilization level was approximately 7500 RU. […] The dissociation was monitored for 120 seconds. Bulk refractive index differences were corrected for by subtracting the response obtained on reference flow cell.
# [8] = target: T1, cynomolgus 4-1BB on activated …; assay: flow cytometry, activated cynomolgus CD8 T cells
# Procedure: as §2
# [9] = target: T9, human 4-1BB on cells; assay: cell-based or functional assay
# [10] = target: recombinant cynomolgus 4-1BB Fc(kih) (cynomolgus, UniProt P0DOX5 223-449 = IgG part, biotin on C-terminal Avi tag where used biotinylated); assay: SPR, captured IgG, cyno 4-1BB Fc(kih) analyte
# Procedure: as §4
# Anti-human Fab antibody (Biacore, Freiburg/Germany) was directly coupled on a CM5 chip at pH 5.0 using the standard amine coupling kit (Biacore, Freiburg/Germany). The immobilization level was approximately 9000 RU.
# [11] = target: T8, mouse 4-1BB on activated mouse …; assay: flow cytometry, activated murine CD8 T cells
# Procedure: as §1
# [12] = target: T11, recombinant murine 4-1BB Fc(kih) (murine, UniProt P0DOX5 223-449 = IgG part, biotin on C-terminal Avi tag where used biotinylated); assay: SPR avidity format, murine 4-1BB Fc(kih) on SA chip
# T11 construct: also called mu4-1BB
# Source text: (§5) Immobilization levels up to 100 resonance units (RU) were used. […] Complex dissociation was monitored for 220 seconds. Bulk refractive index differences were corrected for by subtracting the response obtained in a reference flow cell, where no protein was immobilized.
# [13] = target: T10, recombinant human 4-1BB Fc(kih); assay: SPR
# Procedure: as §4, §5
# [14] = target: T2, recombinant murine 4-1BB AcTEV; assay: SPR, captured IgG, murine 4-1BB AcTEV analyte
# Procedure: as §4
# Anti-human Fc antibody (Biacore, Freiburg/Germany) was directly coupled on a CM5 chip at pH 5.0 using the standard amine coupling kit (Biacore, Freiburg/Germany). The immobilization level was about 7500 RU. […] The dissociation was monitored for 120 seconds. Bulk refractive index differences were corrected for by subtracting the response obtained on reference flow cell.
# [15] = target: T8, mouse 4-1BB on activated mouse …; assay: flow cytometry, activated murine CD4 T cells
# Procedure: as §1
# [16] = target: T9, human 4-1BB on cells; assay: flow cytometry, activated human T cells
# [17] = target: recombinant cynomolgus OX40 Fc(kih) (cynomolgus, UniProt P0DOX5 223-449 = IgG part, biotin on C-terminal Avi tag where used biotinylated); assay: SPR avidity format, antigen on SA chip
# Procedure: as §4
# Immobilization levels up to 800 resonance units (RU) were used.
# [18] = target: T3, human OX40 on cells; assay: cell-based or functional assay
# [19] = target: T3, human OX40 on cells; assay: cell-based or functional assay; remark: listed apart in the source
# [20] = target: T4, cynomolgus OX40 on activated cynomolgus …; assay: flow cytometry, activated cynomolgus CD4 T cells
# Procedure: Centrifugation was performed at 520×g, without brake at room temperature for 30 minutes. Adjacent centrifugation at 150×g at room temperature for 15 minutes was performed to reduce platelets count followed by several centrifugation steps with 400×g at room temperature for 10 minutes to wash PBMC with sterile DPBS.
# Then, plates were washed four times with 200 μL/well 4° C. FACS buffer. […] Plates where washed twice with 200 μL/well 4° C.
# [21] = target: T7, human fibroblast activation protein …; assay: flow cytometry, NIH/3T3-huFAP clone 39 cells
# [22] = target: T5, recombinant human OX40 His; assay: SPR, captured IgG, OX40 His analyte
# Procedure: as §4
# Setup 2) Anti-human Fc antibody (Biacore, Freiburg/Germany) was directly coupled on a CM5 chip at pH 5.0 using the standard amine coupling kit (Biacore, Freiburg/Germany). The immobilization level was approximately 8000 RU. […] The dissociation was monitored for 120 seconds. Bulk refractive index differences were corrected for by subtracting the response obtained on reference flow cell.
# [23] = target: T12, recombinant cynomolgus GITR Fc(kih) (cynomolgus, UniProt P0DOX5 223-449 = IgG part, biotin on C-terminal Avi tag where used biotinylated); assay: SPR ProteOn XPR36, biotinylated GITR-Fc on NLC chip, Fab analyte
# T12 construct: also called cy GITR-Fc
# Procedure: (§6) Immobilization of antigens (ligand): Recombinant antigens were diluted with PBST (10 mM phosphate, 150 mM sodium chloride pH 7.4, 0.005% Tween 20) to 10 μg/ml, then injected at 30 μl/minute in vertical orientation. Injection of analytes: For ‘one-shot kinetics’ measurements, injection direction was changed to horizontal orientation, two-fold dilution series of purified Fab were injected simultaneously along separate channels 1-5, with association times of 200 s, and dissociation times of 240 s, respectively. Buffer (PBST) was injected along the sixth channel to provide an “in-line” blank for referencing. Association rate constants (kon) and dissociation rate constants (koff) were calculated using a simple one-to-one Langmuir binding model in ProteOn Manager software by simultaneously fitting the association and dissociation sensorgrams. The equilibrium dissociation constant (KD) was calculated as the ratio koff/kon.
# [24] = target: T13, recombinant human GITR Fc(kih) (human, UniProt P0DOX5 223-449 = IgG part, biotin on C-terminal Avi tag where used biotinylated); assay: as above
# T13 construct: also called hu GITR-Fc; human monomeric GITR-Fc fusion
# Procedure: as §6
# [25] = target: T14, recombinant murine GITR Fc(kih) (murine, UniProt P0DOX5 223-449 = IgG part, biotin on C-terminal Avi tag); assay: SPR ProteOn XPR36, Fab as analyte
# T14 construct: also called mu GITR-Fc
# Procedure: as §6
binder,measurement,setting,value
B1,EC50,[1],1.4 nM
same,bracketed interval of the EC50 (not explained),[1],0.9 to 2.1 nM
same,binding result,[2],no binding
same,binding result,[3],no binding
same,EC50,[4],0.59 nM
same,EC50,[5],0.4 nM
same,EC50,[6],0.95 nM
same,Kd,[7],30 nM
same,koff,[7],0.001 s⁻¹
same,kon,[7],34000 M⁻¹ s⁻¹
same,EC50,[8],0.47 nM
same,EC50 of increase of IFNγ secretion in activated CD8+ T cells (surface-immobilized IgG),[9],0.07 nM
same,Kd,[10],20 nM
same,koff,[10],0.00078 s⁻¹
same,kon,[10],38000 M⁻¹ s⁻¹
B2,EC50,[11],16.4 nM
same,binding result,[12],binds
same,binding result,[13],no binding
same,Kd,[14],14 nM
same,koff,[14],0.00034 s⁻¹
same,kon,[14],24000 M⁻¹ s⁻¹
same,EC50,[15],10.1 nM
same,binding result,[16],no binding
B3,binding result,[17],binds
same,EC50 of NFκB activation in HeLa_hOx40_NFκB_luc1 reporter cells with secondary anti-human IgG Fcγ antibody,[18],3.59 nM
same,EC50 of rescuing suboptimal TCR stimulation with plate-immobilized anti-OX40 binder (preactivated human CD4 T cells),[19],0.697 nM
same,EC50,[20],48.2 nM
same,binding result,[21],no binding
same,Kd,[22],250 nM
same,koff,[22],0.57 s⁻¹
same,kon,[22],2.3e+06 M⁻¹ s⁻¹
B4,Kd,[23],67 nM
same,Kd,[24],4.4 nM
same,binding result,[25],no binding
